According to article PMC3310279 (Bioconjugate Chemistry, 2012):

Test system: MDA-MB-435 human breast tumor xenografts
Test: Biodistribution in mice bearing MDA-MB-435 xenografts
Assay type: in vivo
Details: MDA-MB-435 tumor-bearing athymic nude mice, 60 min p.i., mean ± SD n = 4

**Q.** “[^99mTc(HYNIC-K(NIC)-3G-RGD2)(tricine)] [Complex 2]” was tested. Which Tumor/Liver ratio did it give?
**A.** The Tumor/Liver ratio was 4.1 ± 0.97.
